Molecular target: H-2Kb on the surface of RMA-S cells (mouse (endogenous in RMA-S))
Assay: stabilisation of Kb on RMA-S cells

Binder | relative efficiency of peptide-binding to Kb (parent OVA55-62 = 1) | relative efficiency of peptide-binding to Kb (parent OVA257-264 = 1)
SVVRFDKL [OVA55-62/P1K->S] | 2 | –
KVIRFDKL [OVA55-62/P3V->I] | 1 | –
KIINFEKL [OVA257-264/P1S->K] | – | 1

The remaining lines, values ahead:

relative efficiency of peptide-binding to Kb (parent OVA55-62 = 1) | relative efficiency of peptide-binding to Kb (parent OVA257-264 = 1) | Binder
10 | – | KVVRFEKL [OVA55-62/P6D->E]
2 | – | KVVNFDKL [OVA55-62/P4R->N]
– | 1 | SIVNFEKL [OVA257-264/P3I->V]
– | 1 | SIIRFEKL [OVA257-264/P4N->R]

Reference: paper PMC2191679
